In publication PMC12102759:

B1: PIP5K1C peptide 642-657 (Phosphatidylinositol 4-phosphate 5-kinase type-1 gamma), 16-mer library wild type / TLN1 PTB (TLN1 Phosphotyrosine-binding (PTB) domain, residues 309-401) (parent)
chain 1: TDERSWVYSPLHYSAQ
chain 2: GVSFFLVKEKMKGKNKLVPRLLGITKECVMRVDEKTKEVIQEWNLTNIKRWAASPKSFTLDFGDYQDGYYSVQTTEGEQIAQLIAGYIDIILK
B2: MXI1 peptide 4-19 (Max-interacting protein 1), 16-mer library wild type / SIN3A PAH2 (SIN3A PAH domain, residues 295-383) (parent)
chain 1: VKMINVQRLLEAAEFL
chain 2: SLQNNQPVEFNHAINYVNKIKNRFQGQPDIYKAFLEILHTYQKEQRNAKEAGGNYTPALTEQEVYAQVARLFKNQEDLLSEFGQFLPDA

Variants of: B1
Assay: proteomic peptide phage display deep mutational scan (ProP-PD DMS): M13 P8 16-mer library selected against immobilised GST-tagged bait for four days (rounds), NGS of the eluted pools per day and pseudo-replica
Details: with TLN1 PTB (TLN1 Phosphotyrosine-binding (PTB) domain, residues 309-401); bait immobilised on MaxiSorp plates (10 µg), library pre-cleared on GST, 2 h binding at 4 °C, five washes; one round per day, days 1-4; value from days 2 and 3; keep out of graded; scale: average fractional NGS count over selection days 2 and 3

Q: chain 1 W6Q was tested. Which screen value did it give?
A: 0

Q: How did the screen value turn out when chain 1 W6D was run?
A: 0

Q: How did the screen value turn out when chain 1 W6A was run?
A: 2.49e-05

Q: With chain 1 W6H as the variant, how does the screen value read?
A: 0

Q: chain 1 W6G was tested. Which screen value did it give?
A: 3.45e-05

Q: With chain 1 S9W as the variant, how does the screen value read?
A: 0

Q: For chain 1 S9V, which screen value is on record?
A: 3.45e-05

Q: chain 1 S9Y was tested. Which screen value did it give?
A: 5.79e-05

Q: How did the screen value turn out when chain 1 S9L was run?
A: 0

Q: With chain 1 S9Q as the variant, how does the screen value read?
A: 4.86e-05

Q: For chain 1 S9K, which screen value is on record?
A: 0

Q: With chain 1 S9E as the variant, how does the screen value read?
A: 6.87e-05

Q: How did the screen value turn out when chain 1 R4I was run?
A: 3.79e-05

Variants of: B2
Assay: as above
Details: with SIN3A PAH2 (SIN3A PAH domain, residues 295-383); bait immobilised on MaxiSorp plates (10 µg), library pre-cleared on GST, 2 h binding at 4 °C, five washes; one round per day, days 1-4; value from days 2 and 3; keep out of graded; scale: average fractional NGS count over selection days 2 and 3

Q: Which screen value does the source give for chain 1 VKMINVQRLLEAHEFL here?
A: 0.000246

Q: For chain 1 VKMINVQRLLEAFEFL, which screen value is on record?
A: 0.00117

Q: Which screen value does the source give for chain 1 VKMINVQRLLEAKEFL here?
A: 0

Q: chain 1 VKMINVQRLLEADEFL was tested. Which screen value did it give?
A: 2.4e-05

Q: Which screen value does the source give for chain 1 VKMINVQRLLEAIEFL here?
A: 0.000995

Q: For chain 1 VKMINVQRLLEAMEFL, which screen value is on record?
A: 8.44e-05

Q: Which screen value does the source give for chain 1 VKMINVQRLLEAGEFL here?
A: 3.3e-05

Q: With chain 1 VKMIFVQRLLEAAEFL as the variant, how does the screen value read?
A: 0.000135

Q: How did the screen value turn out when chain 1 VKMILVQRLLEAAEFL was run?
A: 0.00022

Q: How did the screen value turn out when chain 1 VKMIWVQRLLEAAEFL was run?
A: 0.00143

Q: chain 1 VKMIMVQRLLEAAEFL was tested. Which screen value did it give?
A: 0.0011

Q: chain 1 VKMITVQRLLEAAEFL was tested. Which screen value did it give?
A: 0.000204

Q: With chain 1 VKMIGVQRLLEAAEFL as the variant, how does the screen value read?
A: 0.000565

Q: For chain 1 VKMINVQRLLEAAYFL, which screen value is on record?
A: 0.00266

Q: Which screen value does the source give for chain 1 VKMINVQRLLEAANFL here?
A: 0.000159

Q: Which screen value does the source give for chain 1 VKMINVQRLLEAAAFL here?
A: 0.0141

Q: How did the screen value turn out when chain 1 VKMINVQRLLEAASFL was run?
A: 0.00604

Q: chain 1 VKMINVQRLLEAAGFL was tested. Which screen value did it give?
A: 0.00102

Q: Which screen value does the source give for chain 1 VKMINVQRLLEAAFFL here?
A: 0.000859

Q: How did the screen value turn out when chain 1 VKMINVQRLLEAAVFL was run?
A: 0.0112

Q: How did the screen value turn out when chain 1 VKMINVQRLLEAAMFL was run?
A: 0.00144

Q: How did the screen value turn out when chain 1 VKMINVQRLLEAADFL was run?
A: 0.0127

Q: For chain 1 VKMINVQRLLEAAIFL, which screen value is on record?
A: 0.00251

Q: chain 1 VKMINVQRLLEAARFL was tested. Which screen value did it give?
A: 0.00116

Q: With chain 1 VKMINVQRLLEAAQFL as the variant, how does the screen value read?
A: 0.00119

Q: How did the screen value turn out when chain 1 VKMINVQILLEAAEFL was run?
A: 0.000199

Q: chain 1 VKMINVQKLLEAAEFL was tested. Which screen value did it give?
A: 0.000316

Q: With chain 1 VKMINVQVLLEAAEFL as the variant, how does the screen value read?
A: 2.88e-05

Q: With chain 1 VKMINVQMLLEAAEFL as the variant, how does the screen value read?
A: 9.12e-05

Q: Which screen value does the source give for chain 1 VKMINVQLLLEAAEFL here?
A: 5.66e-05

Q: For chain 1 VKMINVQALLEAAEFL, which screen value is on record?
A: 0.000466

Q: How did the screen value turn out when chain 1 VKMINVQYLLEAAEFL was run?
A: 0.000148

Q: chain 1 VKMINVQQLLEAAEFL was tested. Which screen value did it give?
A: 0.000659

Q: With chain 1 VKMINVQNLLEAAEFL as the variant, how does the screen value read?
A: 0.000431

Q: Which screen value does the source give for chain 1 VKMINVQELLEAAEFL here?
A: 0

Q: With chain 1 VKMINVQSLLEAAEFL as the variant, how does the screen value read?
A: 0.000529

Q: For chain 1 VKMINVQGLLEAAEFL, which screen value is on record?
A: 0.000403

Q: Which screen value does the source give for chain 1 VKMINVQWLLEAAEFL here?
A: 0.000195

Q: How did the screen value turn out when chain 1 VKMINVPRLLEAAEFL was run?
A: 0

Q: For chain 1 VKMINVSRLLEAAEFL, which screen value is on record?
A: 0.000125

Q: Which screen value does the source give for chain 1 VKMINVTRLLEAAEFL here?
A: 0.000284

Q: With chain 1 VKMINVERLLEAAEFL as the variant, how does the screen value read?
A: 0

Q: Which screen value does the source give for chain 1 VKMINVMRLLEAAEFL here?
A: 0

Q: For chain 1 VKMINVVRLLEAAEFL, which screen value is on record?
A: 0.00118

Q: For chain 1 VKMINVWRLLEAAEFL, which screen value is on record?
A: 0.00193

Q: With chain 1 VKMINVGRLLEAAEFL as the variant, how does the screen value read?
A: 0

Q: With chain 1 VKMINVLRLLEAAEFL as the variant, how does the screen value read?
A: 0.000431

Q: For chain 1 VKMINVQRLLWAAEFL, which screen value is on record?
A: 0.00397

Q: Which screen value does the source give for chain 1 VKMINVQRLLGAAEFL here?
A: 0

Q: For chain 1 VKMINVQRLLPAAEFL, which screen value is on record?
A: 0

Q: How did the screen value turn out when chain 1 VKVINVQRLLEAAEFL was run?
A: 0.000204

Q: For chain 1 VKRINVQRLLEAAEFL, which screen value is on record?
A: 0

Q: Which screen value does the source give for chain 1 VKAINVQRLLEAAEFL here?
A: 6.73e-05

Q: chain 1 VKDINVQRLLEAAEFL was tested. Which screen value did it give?
A: 0.000126

Q: Which screen value does the source give for chain 1 VKGINVQRLLEAAEFL here?
A: 9.82e-05

Q: Which screen value does the source give for chain 1 VKLINVQRLLEAAEFL here?
A: 0

Q: chain 1 VKNINVQRLLEAAEFL was tested. Which screen value did it give?
A: 2.4e-05

Q: With chain 1 VKHINVQRLLEAAEFL as the variant, how does the screen value read?
A: 0.000154

Q: chain 1 VKTINVQRLLEAAEFL was tested. Which screen value did it give?
A: 4.82e-05

Q: Which screen value does the source give for chain 1 VKWINVQRLLEAAEFL here?
A: 8.38e-05

Q: For chain 1 VKMINVQRLLEAAETL, which screen value is on record?
A: 9.49e-05

Q: How did the screen value turn out when chain 1 VKMINVQRLLEAAEGL was run?
A: 4.24e-05

Q: For chain 1 VKMINVQRLLEAAEWL, which screen value is on record?
A: 0.000134

Q: chain 1 VKMINVQRLLEAAEYL was tested. Which screen value did it give?
A: 0.00011

Q: For chain 1 VKMINVQRLLEAAEHL, which screen value is on record?
A: 2.84e-05

Q: For chain 1 VKMINVQRLLEAAERL, which screen value is on record?
A: 3.85e-05

Q: With chain 1 VKMINVQRLLEAAEAL as the variant, how does the screen value read?
A: 0.00102

Q: For chain 1 VKMINVQRLLEAAESL, which screen value is on record?
A: 4.3e-05

Q: For chain 1 VKMINVQRLLEAAEVL, which screen value is on record?
A: 2.36e-05

Q: How did the screen value turn out when chain 1 VKMINVQRLLEAAEIL was run?
A: 0

Q: chain 1 VWMINVQRLLEAAEFL was tested. Which screen value did it give?
A: 0.00198

Q: For chain 1 VPMINVQRLLEAAEFL, which screen value is on record?
A: 0.00116

Q: For chain 1 VVMINVQRLLEAAEFL, which screen value is on record?
A: 0.000308

Q: Which screen value does the source give for chain 1 VMMINVQRLLEAAEFL here?
A: 0.000167

Q: With chain 1 VNMINVQRLLEAAEFL as the variant, how does the screen value read?
A: 0.00263

Q: Which screen value does the source give for chain 1 VYMINVQRLLEAAEFL here?
A: 0.00178

Q: With chain 1 VIMINVQRLLEAAEFL as the variant, how does the screen value read?
A: 0.00027

Q: How did the screen value turn out when chain 1 VGMINVQRLLEAAEFL was run?
A: 0.00453

Q: Which screen value does the source give for chain 1 VHMINVQRLLEAAEFL here?
A: 0.00169

Q: Which screen value does the source give for chain 1 VLMINVQRLLEAAEFL here?
A: 0.00133

Q: Which screen value does the source give for chain 1 VSMINVQRLLEAAEFL here?
A: 0.00272

Q: With chain 1 VRMINVQRLLEAAEFL as the variant, how does the screen value read?
A: 0.000162

Q: Which screen value does the source give for chain 1 VQMINVQRLLEAAEFL here?
A: 0.00731

Q: How did the screen value turn out when chain 1 VKMINVQRLLEAAEFT was run?
A: 3.79e-05

Q: Which screen value does the source give for chain 1 VKMINVQRLLEAAEFV here?
A: 7.65e-05

Q: chain 1 VKMINVQRLLEAAEFG was tested. Which screen value did it give?
A: 5.21e-05

Q: chain 1 VKMINVQRLLEAAEFD was tested. Which screen value did it give?
A: 5.21e-05

Q: How did the screen value turn out when chain 1 VKMINVQRLLEAAEFI was run?
A: 0.00145

Q: Which screen value does the source give for chain 1 VKMINVQRLLEAAEFH here?
A: 0.000538

Q: With chain 1 VKMINVQRLLEAAEFA as the variant, how does the screen value read?
A: 0.000201

Q: chain 1 VKMINVQRLLEAAEFS was tested. Which screen value did it give?
A: 9.12e-05

Q: For chain 1 VKMINVQRLLEAAEFN, which screen value is on record?
A: 8.06e-05
